Three molecules from US20200141935A1, “SYSTEM, METHOD, APPARATUS AND DIAGNOSTIC TEST FOR PREGNANCY” (BARCELONA INSTITUTE FOR GLOBAL HEALTH, priority 2017, published 2020) can be followed below.

One assay deals with P. falciparum. In words: Prevalence of infection by qPCR at delivery by intermittent preventive treatment group. Type of assay: in vivo, pregnant women. Particulars: for PCR prevalence of infection (%): by IPTp group. The procedure: All women included in the study received bed nets treated with long-lasting insecticide. At delivery, HIV serostatus was assessed using a rapid diagnostic test and hemoglobin was determined in capillary blood sample using mobile devices (HemoCue, Hemocontrol and Sysmex KX analyzer). Tissue samples from the maternal side of the placenta, as well as maternal peripheral-, placental-blood samples were collected at delivery. Dried blood spots onto filter paper were prepared (50 ul) and blood was collected into EDTA vacutainers and centrifuged, with the plasma stored at −20° C. […] Clinical malaria episodes were treated according to national guidelines at the time of the study. Biases due to pooling of data from these two clinical trials were minimized by the use of similar protocols and procedures during the two trials. […] P. falciparum infection at delivery was defined if peripheral or placental blood samples were positive by microscopy or qPCR or if histology positive (active or chronic). Infection during pregnancy was defined if peripheral or placental blood samples were positive by microscopy or qPCR at any time-point of collection, if P. falciparum detected by hospital passive case detection (PCD), or if histology positive (active, chronic or past) on the sub-set of women from longitudinal cohort. Seroprevalences between countries (Benin, Gabon and Mozambique for HIV-uninfected and Kenya and Mozambique for HIV-infected), between IPTp intervention group (MQ vs SP for HIV-uninfected and MQ vs Placebo for HIV infected) and anemia status were compared by logistic regression models adjusted by parity, age and treatment.
On the technique in general: Real-time PCR tracks product formation cycle by cycle.

In assay [1] the test system is IgG. In words: Antibody dynamics during pregnancy (time to double, half-life, sero-reversion) from bead-based immunoassay. The format is binding, pregnant Mozambican women. From the text:
(§1) Two multiplex suspension array panels were constructed to quantify IgG responses against P. falciparum recombinant proteins and synthetic peptides, using the xMAP™ technology and the Luminex® 100/200™ System (Luminex® Corp., Austin, Tex.). MagPlex® microspheres (magnetic carboxylated polystyrene microparticles, 5.6 μm) with different spectral signatures were selected for each protein (DBL3X, DBL5ϵ, DBL6ϵ, AMA1 and MSP119), peptides (25 VAR2CSA peptides and pCSP), tetanus toxin and bovine serum albumin (BSA). Antigens were covalently coupled to beads following a modification of the Luminex® Corporation protocol. Protein and peptide multiplex arrays were prepared by pooling together equal volumes of coated beads. Plasma samples or the product of DBS elution were analyzed in duplicate at dilution 1:400 for the protein array and 1:100 for the peptide array. A hyperimmune plasma pool composed by 23 plasmas from malaria infected Mozambican pregnant women (HIP-VAR2CSA) was included in each assay plate, in addition to blanks (wells without sample) to assess background levels. A minimum of 50 microspheres were read per spectral signature and results were exported as crude median fluorescent intensity ([…]). Duplicates were averaged and background MFIs were subtracted. A total of 224 plates were analyzed and the intra-assay variation (mean CV of replicates from 20 plasma samples per plate) ranged from 1.4% to 7.3% for the protein array and from 2.5% to 12.4% for the peptide array. The inter-assay variation (variability of positive pool [HIP-VAR2CSA] between 224 plates) was 5% for the protein array and 26% for the peptide array. Results were normalized (nMFI) to account for plate-to-plate variation by […] the background subtracted MFI of each sample with the value of the positive pool in the same plate and dividing by the median of positive pools in all plates.
The adjusted effect of infection on antibody levels was analyzed using log-linear mixed-effects regression models incorporating Gaussian random intercepts. […] Time to double the antibody levels (T2x) and half-lives were calculated in weeks from the estimated rates and the boundaries at 95% confidence interval obtained from mixed-effects models for subjects suffering a P. falciparum infection at follow-up independent of antibody status at recruitment (Ab[−or+]/Pf+) and subjects seropositive at recruitment and no infection detected on follow-up (Ab+/Pf−), respectively. In situations that the increase rate is a negative value (rate below 1) or the decay rate is a positive value (rate above 1), the calculated T2x or half-life was reported as infinity. Similarly, the time to sero-reversion was calculated for these subjects using the ratio of the seropositivity cutoff by the average antibody titers at recruitment as decay, i.e. how many times the average titers need to be reduced to be equal the cutoff.

Assay [2] concerns IgG. In words: Multiplex bead-based immunoassay (Luminex): IgG levels (nMFI) against antigens, compared between groups. Type of assay: binding, pregnant women.
From the text: as §1
(§2) Antibodies were eluted from DBS from Gabon, […] and Kenya, as previously described. Briefly, to achieve a concentration of eluted blood proteins equivalent to a 1:50 plasma dilution antibodies were eluted from four spots of approximately 3 mm in diameter with 200 μl Luminex® assay buffer (1% BSA, 0.05% sodium azide in filtrated PBS [Phosphate-buffered saline]). […]. Controls blood drops were artificially prepared using fresh erythrocytes (blood type 0, assuming a hematocrit approximately of 50%) and freeze plasma from 49 Spanish pregnant women. Filter papers were stored avoiding humidity at −20° C. in Barcelona.
(§3) Presence or absence of antibodies was defined by finite mixture models (FMM) for pregnancy-specific antigens (VAR2CSA peptides and recombinant domains) and by the mean plus 3 standard deviation (SD) of IgG response from pregnant women from Barcelona for general malaria antigens (AMA1, MSP119, and pCSP).
(§4) Data was fitted to a normal distribution by logarithmic transformation of nMFIs. Participant's baseline characteristics and parasitological outcomes were compared between study times and areas by univariate analysis (Fisher's tests for binary outcomes or t-Student test for continuous outcomes). Responses were considered not restricted to malaria when seroprevalences were 5% or high among Spanish pregnant women.
Linear regression models were used to compare antibody levels from Mozambican and Spanish pregnant women. The capacity of antibody levels to mimic malaria trends in Mozambique was analyzed by linear regression models (2010 was compared with 2003-2005 corresponding to a trend of malaria decrease and 2011-2012 with 2010 to a trend of increase) adjusted by treatment, parity, age and HIV.
The impact of P. falciparum infection during pregnancy on antibodies at delivery was assessed in linear regression models adjusted by age, parity, HIV and treatment. Changes in antibody levels due to parasite density (below or above 200) were assessed by linear regression models adjusted by age, parity, HIV and treatment. […]

Assay [3] has as its system IgG. In words: Multiplex bead-based immunoassay: seroprevalence (finite mixture models or negative control cutoff). Type of assay: binding, pregnant women. Particulars: for Seroprevalence MQ (%): IPTp with mefloquine; for Seroprevalence Non-A (%): non anemia.
From the text: as §1, §2, §3, §4
Seroprevalences between countries (Benin, Gabon and Mozambique for HIV-uninfected and Kenya and Mozambique for HIV-infected), between IPTp intervention group (MQ vs SP for HIV-uninfected and MQ vs Placebo for HIV infected) and anemia status were compared by logistic regression models adjusted by parity, age and treatment.
The modification of the associations by HIV infection or parity was assessed by including interaction terms into the regression models.

Setting [4] is: HIV uninfected, qPCR in peripheral and placental blood at delivery.

Take `OC(c1cc(C(F)(F)F)nc2c(C(F)(F)F)cccc12)C1CCCCN1` (stereo not drawn) [MQ, mefloquine]: the “PCR MQ (OR)” value with P. falciparum (HIV infected, MQ with Placebo as reference) is 0.24 (0.10; 0.59). In addition, the “PCR prevalence of infection (%)” value with P. falciparum (HIV infected, qPCR at delivery) came to 2%; in the assay on P. falciparum (setting [4]), 18%.
Turning to sulfadoxine-pyrimethamine [SP], in the assay with P. falciparum (HIV uninfected, SP with MQ as reference), the “PCR SP (OR)” value was 1.93 (1.28; 2.91). Also, the “PCR prevalence of infection (%)” value with P. falciparum (setting [4]) was found to be 27%.

B1: AMA1: recombinant apical membrane antigen 1, from 3D7 strain (protein)
chain: QNYWEHPYQNSDVYRPINEHREHPKEYEYPLHQEHTYQQEDSGEDENTLQHAYPIDHEGAEPAPQEQNLFSSIEIVERSNYMGNPWTEYMAKYDIEEVHGSGIRVDLGEDAEVAGTQYRLPSGKCPVFGKGIIIENSNTTFLTPVATGNQYLKDGGFAFPPTEPLMSPMTLDEMRHFYKDNKYVKNLDELTLCSRHAGNMIPDNDKNSNYKYPAVYDDKDKKCHILYIAAQENNGPRYCNKDESKRNSMFCFRPAKDISFQNYTYLSKNVVDNWEKVCPRKNLQNAKFGLWVDGNCEDIPHVNEFPAIDLFECNKLVFELSASDQPKQYEQHLTDYEKIKEGFKNKNASMIKSAFLPTGAFKADRYKSHGKGYNWGNYNTETQKCEIFNVKPTCLINNSSYIATTALSHPIEVENNFPCSLYKDEIMKEIERESKRIKLNDNDDEGNKKIIAPRIFISDDKDSLKCPCDPEMVSNSTCRFFVCKCVERRAEVTSNNEVVVKEEYKDEYADIPEHKPTYDKMK
As to B1, the “Antibody dynamics Sero-revertion weeks (95% CI)” value in the assay with IgG [1] (time to sero-negativisation, seropositive at recruitment, no infection on follow-up) is 544.49 (242.56; ∞) weeks. For the same molecule, in the assay on IgG [1] (women with P. falciparum infection on follow-up, log-linear mixed-effects model), the “Antibody dynamics Time to double weeks (95% CI)” value is given as 91.65 (39.61; ∞) weeks. Also, the “Immunoreactivity: recognition by IgGs at levels above BSA recognition” value in the assay on IgG [2] (641 pregnant Mozambican women 2003-2012, mean nMFI above mean BSA nMFI plus 3 SD) is given as “above BSA recognition”. Besides, in the assay on IgG [2] (nMFI at delivery, Mozambican women followed 2011-2012, adjusted), the “Infection during pregnacy Infection vs no-infection ratio (95% CI)” value is 1.8 (1.30; 2.50). Moreover, the “Parity MG vs PG ratio (95% CI)” value in the assay on IgG [2] (nMFI at delivery, multigravid vs primigravid Mozambican women, adjusted) is reported as 1.2 (0.76; 1.9). In addition, in the assay on IgG [2] (nMFI ratio at delivery, Mozambique, adjusted by parity, age, treatment and HIV), the “Exposure dependence Increase 2011-2012 vs 2010 Ratio (95% CI)” value was 0.88 (0.73; 1.07). Besides, in the assay on IgG [2] (nMFI ratio, pregnant Mozambican women vs pregnant Spanish women (N=49)), the “PW Mz vs PW Bcn Ratio (95% CI)” value is given as 24.51 (18.53; 32.43). In addition, the “Parasite density Low vs High ratio (95% CI)” value with IgG [2] (nMFI ratio, below or above 200 genomes per microliter, adjusted) is on record as 1.18 (0.96; 1.46). The “SeroPrev Delivery %” value in the assay on IgG [3] (239 pregnant Mozambican women followed 2011-2012) amounted to 89%. Also, the entries for the “Seroprevalence MQ (%)” value in the assay on IgG [3] (HIV infected) and in the assay with IgG [3] (HIV uninfected) were 92% and 96%, respectively. Further, the “Seroprevalence K (%)” value in the assay on IgG [3] (HIV infected, Kenya, at delivery) came to 95%. The “MQ (OR)” value in the assay with IgG [3] (HIV infected, MQ, Placebo as reference) is given as 0.6 (0.32; 1.12). In addition, the “M (OR)” value in the assay with IgG [3] (HIV infected, Mozambique, Kenya as reference) is 0.76 (0.40; 1.45). The “Seroprevalence M (%)” value in the assay on IgG [3] (HIV infected, Mozambique, at delivery) is recorded as 93%; in the assay on IgG [3] (HIV uninfected, Mozambique, at delivery), 93%. Moreover, in the assay on IgG [3] (HIV infected, Placebo group), the “Seroprevalence PL (%)” value is listed as 95%. In addition, the “Seroprevalence A (%)” value with IgG [3] (HIV infected, anemia) was 92%; in the assay on IgG [3] (HIV uninfected, anemia), 96%. Also, the “A (OR)” value with IgG [3] (HIV infected, anemia, Non-A as reference) is recorded as 0.79 (0.41; 1.51). Also, the “Seroprevalence Non-A (%)” value in the assay on IgG [3] (HIV infected) is given as 94%; in the assay with IgG [3] (HIV uninfected), 96%. In addition, in the assay on IgG [3] (HIV uninfected, Benin, at delivery), the “Seroprevalence B (%)” value came out at 100%. Besides, in the assay with IgG [3] (HIV uninfected, Gabon, at delivery), the “Seroprevalence G (%)” value was found to be 82%. Moreover, the “Seroprevalence SP (%)” value in the assay with IgG [3] (HIV uninfected, IPTp with sulfadoxine-pyrimethamine) is recorded as 96%. In addition, the “Seroprevalence in Tanzania” value in the assay on IgG [3] (HIV-uninfected women, area of Tanzania where no malaria infection was observed) is 42%. The “Seroprevalence 2003/4 (%)” value with IgG [3] (Mozambican pregnant women at delivery, 2003/4) turned out to be 99%. In addition, the “Seroprevalence 2005 (%)” value in the assay with IgG [3] (Mozambican pregnant women at delivery, 2005) turned out to be 98%. In addition, in the assay on IgG [3] (Mozambican pregnant women at delivery, 2010), the “Seroprevalence 2010 (%)” value was found to be 93%. In addition, in the assay on IgG [3] (Mozambican pregnant women at delivery, 2011), the “Seroprevalence 2011 (%)” value is 89%. For the same molecule, the “Seroprevalence 2012 (%)” value in the assay with IgG [3] (Mozambican pregnant women at delivery, 2012) was found to be 92%. Moreover, in the assay with IgG [3] (seroprevalence among pregnant Spanish women never exposed to malaria), the “SeroPrev PW Bcn (%)” value is 2%. Further, the “Decrease (OR)” value with IgG [3] (seroprevalence odds ratio 2010 vs 2003/5, Mozambique, adjusted) was 0.24 (0.06; 0.93). The “Increase (OR)” value in the assay on IgG [3] (seroprevalence odds ratio 2011/12 vs 2010, Mozambique, adjusted) is on record as 0.58 (0.29; 1.16).
